B1: Truncated α1-AT: 48 kDa truncated human α1-AT (16His to 357Pro) isolated from heat-treated CF BALF; PLA2 stimulator (protein, listed as Homo sapiens)
chain: HDQDHPTFDKITPDLAEFAFSLYRQLAHQSDSTNIFFSPVSIAAAFAMLSLGAKGDTHDEILEGLNFNLTEIPEAQIHEGFQELLRTLNQPDSQLQLTTGNGLFLSEFLKLFDKFLEDFKKLYHSEAFTVNFGTDEEAKKQINDYVEKGTQGKIVNLVKELDRDTVFALVNYIFFKGKWERPFEVKDTEEEDFHVDQVTTVKVPMMKRLGMFNIQHCKKLSSWVLLMKYLGNATAIFFLPDEGKLQHLENELTHDIITKFLENEDRRSASLHLPKLSITGTYDLKSVLGQLGITKVFSNGADLSGVTEEAPLKLSKAVHKAVLTIDEKGTEAAGAMFLEAIP
B2: annexin VIII: native rabbit lung annexin VIII protein (protein, UniProt O97529 1-327, looked up)
Annexin A8: MAWWKAWVEQEGVTVKGSPHFNPVPDAETLYKAMKGIGTNEQAIIDVLTRRSSAQRQQIAKSFKAQFGSDLTETLKSELSGKFERLIVALMYPPYRYEAKELHDAMKGLGTKEGVIIEILASRTKNQLQEIMKAYEEDYGSSLEEDIQADTSGYLERILVCLLQGSRDDVTGFVDPGLALQDAQDLYAAGEKICGTDEMKFITILCTRSARHLMRVFEEYEKIANKSIEDSIKSETHGSLEEAMLTIVKCTRNLHCYFAERLHYAMKGAGTLDGTLIRNIVSRSEIDLNLIKGHYKKMYGKTLSSMIMEDTSGDYKNALLSLVGSDP
B3: annexin I: native rabbit lung annexin I protein (protein, UniProt P51662 2-346, looked up)
Annexin A1: AMVSEFLKQAWFIDNEEQDYINTVKTYKGGPGSAVSPYPAFNPSSDVAALHQAIMVKGVDEATIIDILTKRNNAQRQQIKAAYLQEKGKPLDEVLKKALTGHLEEVVLALLKTPAQFDADELRAAMKGLGTDEDTLIEILASRNNKEIREINRVYREELKRDLAKDIASDTSGDFQKALLSLAKGDRSEDFGVNEDLADTDARALYEAGERRKGADVNVFTTILTTRSYLHLRRVFQKYSKYSQHDMNKVLDLELKGDIEKCLTAIVQCATCKPAYFAEKLYQAMKGAGTRHKALIRIMVSRSEVDMNDIKAFYQKKYGVSLCQAILDETKGDYEKILVALCGGN

Experiments:
[1] = biological target: T1, porcine pancreatic lipase (Sus scrofa, UniProt P00591); experiment: Fluorescent assay of lipase after PLC reaction; format: biochemical; details: FIG. 42
T1 construct: purchased Sigma; host or cells: porcine pancreas
T1 sequence (P00591 1-450): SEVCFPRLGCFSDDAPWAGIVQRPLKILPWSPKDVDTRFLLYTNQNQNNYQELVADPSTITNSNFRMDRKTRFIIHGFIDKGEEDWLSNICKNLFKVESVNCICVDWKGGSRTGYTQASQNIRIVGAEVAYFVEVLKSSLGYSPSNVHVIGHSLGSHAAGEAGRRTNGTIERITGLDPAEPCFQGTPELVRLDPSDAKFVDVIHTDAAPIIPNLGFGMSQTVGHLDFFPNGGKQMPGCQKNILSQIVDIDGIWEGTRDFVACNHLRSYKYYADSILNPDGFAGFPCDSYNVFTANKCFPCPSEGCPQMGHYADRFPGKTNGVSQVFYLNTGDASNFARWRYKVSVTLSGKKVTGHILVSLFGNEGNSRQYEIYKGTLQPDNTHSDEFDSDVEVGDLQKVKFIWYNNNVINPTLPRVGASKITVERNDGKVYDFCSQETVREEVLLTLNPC

[2] = biological target: PLC (Clostridium perfringens) (Clostridium perfringens, UniProt P0C216)
[3] = biological target: porcine pancreatic PLA2 (Sus scrofa, UniProt P00592); experiment: Continuous fluorescent assay of PLA2 (Bis-BODIPY FL C11-PC labeled DOPC-PG liposomes); details: for loss of activity after treating the protein in boiling water: boiling water for 5 min; for TFI: 5 ng PLA2, 37° C., 2 min; for TFI / % of control: truncated α1-AT 6 μg, intact α1-AT 20 μg, albumin 20 μg
[4] = biological target: T2, pancreatic PLA2 (Sus scrofa, UniProt P00592); experiment: Radioactive assay of PLA2 (14C-labeled liposomes); format: biochemical, porcine; details: 10 μg rabbit lung annexin, FIG. 25
T2 construct: purchased Sigma Chemical (St. Louis, Mo.); host or cells: porcine pancreas
Procedure: Radioactive assay of PLA2. […] In some tests, 25-100 μg of CF BALF proteins, or 10 μg of rabbit lung annexin I or annexin VIII or both were added to the reaction mixture as specified. The reaction was carried out at room temperature for 30 sec and stopped by adding 2 ml of chloroform:methanol (1:2 vol) followed by addition of 0.4 ml water, and 10 μl of egg PC and lysoPC (20 nmol) which was used as carrier. The test tube was stirred using a Vortex. Lipids were extracted by adding additional 0.6 ml water and 0.6 ml chloroform. After agitating on a vortex, the mixture was centrifuged at 2,000 rpm for 10 min. The chloroform layer was withdrawn and transferred to a new test tube using a Pasteur pipette. Chloroform was evaporated to dryness under a flow of nitrogen. PC and lysoPC were isolated by the methods of silica gel thin-layer chromatography (TLC) using a developing solvent system of chloroform/methanol/water in a ratio of 65/45/5 as described previously (41). Lipids on the TLC plate were visualized by exposure of the TLC plate in an iodine tank. […] Radioactivity in the vial was determined by using a beta scintillation counter. PLA2 activity was expressed as either decrease in PC radioactivity or increase in fatty acid or lysoPC radioactivity as described previously (41).

[5] = with lysoPC (9 nmol), control LysoPC + PLA2
[6] = without lysoPC, control PLA2 (5 ng)

Chain of porcine pancreatic PLA2 (P00592 23-146): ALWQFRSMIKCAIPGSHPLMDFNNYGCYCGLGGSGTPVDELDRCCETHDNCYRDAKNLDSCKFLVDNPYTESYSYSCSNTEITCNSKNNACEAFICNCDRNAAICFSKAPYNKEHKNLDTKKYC
T2 sequence (P00592 23-146): as above

Molecule	effect on lipase activity [1]	effect on PLC activity [2]	loss of activity after treating the protein in boiling water [3]	TFI ([3]; with lysoPC (9 nmol))	% of control [3, 5] [%]	TFI ([3]; without lysoPC)	% of control [3, 6] [%]	inhibition of PLA2 and PLA2-s activities [4]	further results
Intact α1-AT: intact 52 kDa human serum α1-AT; serum PLA2-s (protein-II) purified from human serum	no effect on the lipase activity	effectively inhibited PLC activity	less than 20%	29.81	151.4	68.96	183.3	–	effect on PLA2 activity ([3]; wide range of protein concentrations): exhibited only PLA2-stimulating activity
Human serum α1-AT: human serum α1-AT obtained from Sigma Chemical Co.	–	inhibited PLC activity	not affected	–	–	–	–	–	effect of commercial α1-AT on PLA2 activity ([3]; Sigma product, FIG. 44A): stimulated PLA2 activity
B1	no effect on the lipase activity	effectively inhibited PLC activity	heat stable	31.82	161.6	57.23	152.1	–	effect of isolated PLA2-s on pancreatic PLA2 activity ([3]; 6 μg PLA2-s, FIG. 29B): exhibited PLA2-stimulating activity; effect on PLA2 activity with 50% PC-50% PG liposomes ([3]; 6 μg truncated α1-AT, 37° C.): markedly stimulated; effect on PLA2 activity with 90% PC-10% PG liposomes ([3]; 6 μg truncated α1-AT, 37° C.): did not significantly enhance the PLA2 activity; effect on PLA2 activity with 100% PC liposomes ([3]; 6 μg truncated α1-AT, 37° C.): did not stimulate PLA2 activity
B2	–	–	–	–	–	–	–	significantly inhibited	–
B3	–	–	–	–	–	–	–	significantly inhibited	inhibition of PLA2 activity and of the effect of truncated α1-AT on PLA2 stimulation ([3]; fluorescent assay, FIG. 46B): markedly inhibited

— patent US7968306B2 (Wisconsin Alumni Research Foundation, priority 2002, dated 2011)
